A short description of series [1]: folding stability dG unfold (combined trypsin and chymotrypsin); higher = more stable. Summed up:
(§1)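 Unfolding free energy was derived, per protease or combined, by relating Bayesian-fitted K50 values from sequencing counts to a sequence-predicted unfolded-state K50 and a shared folded-state K50. The underlying digests exposed cysteine-free mini-proteins under 80 residues, in a PA-tagged cDNA display construct, to trypsin and chymotrypsin at 11 threefold-diluted concentrations and to a no-protease condition. A filter kept only designs with AlphaFold2 dimer inter-PAE above 15.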

The nature of series [2]: folding stability dG unfold from trypsin proteolysis; higher = more stable. Summed up:
as §1

Series [3] is described as follows: folding stability dG unfold from chymotrypsin proteolysis; higher = more stable. Summed up: as §1

± gives the half width of the 95% confidence interval.

In the case of “SAGGSAGGSKKKVKVVKVEKPEGDYYVVTVYYEDGKLLKKVVFPKGVKPEEVLEKVKKLVEEESAGGSAGGS [r12_798_TrMRF]”, the “folding stability dG unfold” value in series [1] was found to be 2.51 ± 0.076 kcal/mol; in series [2] it was 1.95 ± 0.043 kcal/mol; in series [3], 2.82 ± 0.049 kcal/mol.
In the case of “SAGGSAGGSKKPIPVKVIETKPDPEIGGITTVELEFPDGSKATFTSIEDIEKIPDIEVEIKLGSAGGSAGGS [r20_192_TrMRF]”, the “folding stability dG unfold” value is 0.648 ± 0.056 kcal/mol in series [1], 0.591 ± 0.027 kcal/mol in series [2] and 0.639 ± 0.043 kcal/mol in series [3].
The corresponding values for “SAGGSAGGSKKRTILIQFPNGSPEEAVDNIKNWLRALGNEPIPLEDVKIQWYPGNPGYFQIEISAGGSAGGS [r12_122_TrROS]” are 2.53 ± 0.12 kcal/mol, 1.81 ± 0.027 kcal/mol and 2.94 ± 0.042 kcal/mol.
The corresponding values for “SAGGSAGGSKKVKIEINVVVPPGMTPEKAKQMAEEFAREIAEAYGGKDVKVKVRIMYIPPDQFSAGGSAGGS [r12_522_TrROS]” are 2.08 ± 0.13 kcal/mol, 2.04 ± 0.084 kcal/mol and 2.19 ± 0.066 kcal/mol.
The corresponding values for “SAGGSAGGSKKVKVTIEYDKETGVVKVTVEDPETGEKYTVTAKFEFDKNGKLVKVEVVSIEKESAGGSAGGS [r12_791_TrROS_Hall]” are 3.67 ± 0.11 kcal/mol, 2.71 ± 0.14 kcal/mol and 3.94 ± 0.11 kcal/mol.
As for “SAGGSAGGSKLKPFPIKLPGDLSMTIVELPEDPRFIVTVWHPDGDKPIDSIEFEPDEFEANVGSAGGSAGGS [r20_190_TrMRF]”, the “folding stability dG unfold” value turned out to be 0.591 ± 0.078 kcal/mol in series [1], 0.285 ± 0.023 kcal/mol in series [2] and 0.793 ± 0.033 kcal/mol in series [3].
Taken in the same sequence, the figures for “SAGGSAGGSKLTIMVKMDSAEDAEEEARSLLKELGIKPGMKEVKVSMFPRGNEYYAHVEIKFKSAGGSAGGS [r12_7_TrROS]” were 0.776 ± 0.12 kcal/mol, 0.672 ± 0.038 kcal/mol and 0.759 ± 0.15 kcal/mol.
Taken in the same sequence, the figures for “SAGGSAGGSKPEIRKIKIYTKEGGKKIIPVNGTVIEIDGKKYKVKPNDKIKVPKNVKKIEPEGSAGGSAGGS [r12_779_TrMRF]” were 0.028 ± 0.22 kcal/mol, -0.395 ± 0.25 kcal/mol and 0.153 ± 0.19 kcal/mol.
Taken in the same sequence, the figures for “SAGGSAGGSKPEPVKPVKLKVKLPGGEYEVEAVELPKGVVLVRNPADNSLAVITPDRLVVLPLSAGGSAGGS [r12_737_TrMRF]” were 0.468 ± 0.076 kcal/mol, 0.754 ± 0.024 kcal/mol and 0.0823 ± 0.14 kcal/mol.
As to “SAGGSAGGSKPEYVLRVKIYNEETGELVEEIEITVKSKEEALKALKKLLPKDNVKIEVEILPPSAGGSAGGS [r12_578_TrROS_Hall]”, the “folding stability dG unfold” value in series [1] is 3.2 ± 0.17 kcal/mol; in series [2], 3.34 ± 0.11 kcal/mol; in series [3], 3.09 ± 0.25 kcal/mol.
Taken in the same sequence, the figures for “SAGGSAGGSKPIVAPVSVEDLTLEGLKALVDSHPEGEVPIFVTRSDGKPLVITVLPDGELSLDSAGGSAGGS [r12_1054_TrMRF]” were -0.318 ± 0.076 kcal/mol, 0.17 ± 0.019 kcal/mol and -1.49 ± 0.31 kcal/mol.
The corresponding values for “SAGGSAGGSKPKEIETVTLKLTLKDPETGEEIEVTVELTRVRVDGKEYLILRVTDPDGKEIELSAGGSAGGS [r12_283_TrROS_Hall]” are 3.81 ± 0.09 kcal/mol, 3.13 ± 0.12 kcal/mol and 4.115 ± 0.039 kcal/mol.
The corresponding values for “SAGGSAGGSKPNEIKIKKIKIEVKIKKKKVDKEKGEEIYEIEEVKIEIEEITLSKEELEKLLKSAGGSAGGS [r12_723_TrROS_Hall]” are 1.94 ± 0.12 kcal/mol, 1.54 ± 0.097 kcal/mol and 2.06 ± 0.088 kcal/mol.
Turning to “SAGGSAGGSKPVLVKVERKEVEVPLPDGTPGKVFVVKVTVLGENEPLAEKTYLFASEEEAKESSAGGSAGGS [r12_461_TrMRF]”, the “folding stability dG unfold” value in series [1] was 0.595 ± 0.13 kcal/mol; in series [2] it was 0.102 ± 0.076 kcal/mol; in series [3] it was 0.761 ± 0.17 kcal/mol.
Take “SAGGSAGGSKSKKYIEIDFSNLTEIKFNPNTNYATAIFKDKGKIYIAKIHFLPNGKAIAEVFDSAGGSAGGS [r12_839_TrMRF]”: the results for the “folding stability dG unfold” value in series [1], in series [2] and in series [3] were 2.68 ± 0.077 kcal/mol, 1.67 ± 0.054 kcal/mol and 2.931 ± 0.025 kcal/mol, respectively.
Taken in the same sequence, the figures for “SAGGSAGGSKSYEIKEITFDPENNTITIVLVAPDGKIVRTETFKPGEEVVFTFENGEKVTVKASAGGSAGGS [r12_441_TrMRF]” were 2.54 ± 0.05 kcal/mol, 1.99 ± 0.059 kcal/mol and 2.828 ± 0.008 kcal/mol.
On to “SAGGSAGGSKTVTLTLTLPGKKITFTLTEDGTVRMTVYNEKTGEKVKEITVPAKNLEELLKALSAGGSAGGS [r20_129_TrROS_Hall]”, for which the figures for the “folding stability dG unfold” value in series [1], in series [2] and in series [3] were 4.29 ± 0.066 kcal/mol, 3.02 ± 0.085 kcal/mol and 4.63 ± 0.064 kcal/mol, respectively.
For “SAGGSAGGSKVLIIEPEENKELAEKIAKELKEKGELGEVEIKTFSSPEEAKEYAKNYDIVITGSAGGSAGGS [r12_679_TrMRF]”, the “folding stability dG unfold” value in series [1] was 0.302 ± 0.14 kcal/mol; in series [2] it was -0.0715 ± 0.22 kcal/mol; in series [3], 0.528 ± 0.17 kcal/mol.
For “SAGGSAGGSLDPGEEVKIEITDWHPPNGYYRIKIEFPNGPPIDIWMPPDDPQQMKEQAKDLIKSAGGSAGGS [r20_167_TrROS]”, the “folding stability dG unfold” value in series [1] is 0.107 ± 0.23 kcal/mol; in series [2] it was -0.725 ± 0.46 kcal/mol; in series [3], 0.372 ± 0.36 kcal/mol.
Taken in the same sequence, the figures for “SAGGSAGGSLEKIKEALKKAGYPPENVVIEVKTLPNGEIVITVKYNGKEIPKEIVEEAIKKLKSAGGSAGGS [r12_175_JUSTAS]” were 3.45 ± 0.066 kcal/mol, 2.69 ± 0.081 kcal/mol and 3.72 ± 0.08 kcal/mol.
As to “SAGGSAGGSLHPSQPLLVTVEVEVDPETGTVRLRVSVWVPGPRERLLERELEVPLHSLPEGALSAGGSAGGS [r12_145_TrMRF]”, the “folding stability dG unfold” value was determined as 2.25 ± 0.091 kcal/mol in series [1], 1.69 ± 0.039 kcal/mol in series [2] and 2.49 ± 0.015 kcal/mol in series [3].
As for “SAGGSAGGSLKKGEKVKLRARIYEPGGGKLLAELEIEADVGKAEEIAEELRKAFPGYEVEIELSAGGSAGGS [r12_21_TrMRF]”, the figures for the “folding stability dG unfold” value in series [1], in series [2] and in series [3] were 3.04 ± 0.07 kcal/mol, 2.67 ± 0.036 kcal/mol and 3.24 ± 0.057 kcal/mol, respectively.
On to “SAGGSAGGSLNPEKPSVRIRIKVQKPDGSYEEIDIEVPFQDIPDVIDELKKKGYKILSIELEPSAGGSAGGS [r12_986_TrMRF]”, for which the results for the “folding stability dG unfold” value in series [1], in series [2] and in series [3] were 4.37 ± 0.18 kcal/mol, 4.45 ± 0.18 kcal/mol and 4.31 ± 0.08 kcal/mol, respectively.
Taken in the same sequence, the figures for “SAGGSAGGSLSDLPPGVELIAVGDDVVAVRRPDGSVLVFVRERDRVFVRELSPDVSIEEALADSAGGSAGGS [r12_605_TrMRF]” were 1.44 ± 0.057 kcal/mol, 1.32 ± 0.029 kcal/mol and 1.52 ± 0.068 kcal/mol.
The corresponding values for “SAGGSAGGSLSLPEGFKLSSLVSVEELPGVLRIYFLDPEKPLLYEVVYDLETGEQTVERIPIGSAGGSAGGS [r12_206_JUSTAS]” are 2.5 ± 0.072 kcal/mol, 2.43 ± 0.065 kcal/mol and 2.6 ± 0.051 kcal/mol.
The corresponding values for “SAGGSAGGSLTIRFPEELSPEEAVELAEGLVRELFPEDVPVTVTVVFYDPETGEELTIPAELASAGGSAGGS [r12_1051_TrMRF]” are 1.43 ± 0.044 kcal/mol, 1.49 ± 0.039 kcal/mol and 1.35 ± 0.025 kcal/mol.
Take “SAGGSAGGSLTVSFPGITLTLETVPGTGKIIATVTFPGGEVRTISSDVPLSELPPVVREALELLSAGGSAGG [r6_749_JUSTAS]”: the “folding stability dG unfold” value in series [1] amounted to 2.74 ± 0.072 kcal/mol; in series [2], 2.72 ± 0.087 kcal/mol; in series [3] it was 2.67 ± 0.051 kcal/mol.
The corresponding values for “SAGGSAGGSLVLPDDYKVIVREFDLSDVGRAVREVMEEFDVKDALFLAVPLPGKVLLFVVVKESAGGSAGGS [r12_929_TrMRF]” are 2.99 ± 0.21 kcal/mol, 2.95 ± 0.098 kcal/mol and 2.9 ± 0.076 kcal/mol.
Taken in the same sequence, the figures for “SAGGSAGGSMEELPEGAELIREEDGVAVVRNENGELLVVRRVDGKLEVRRFPPGMSIEEALAKSAGGSAGGS [r12_605_TrROS_Hall]” were 3.05 ± 0.045 kcal/mol, 2.95 ± 0.064 kcal/mol and 3.07 ± 0.04 kcal/mol.
The corresponding values for “SAGGSAGGSMELDEDGRLIVRIKVRDKETKEWKEIEIELPGLTEEEIRKLAEELGAEEIEILPSAGGSAGGS [r12_792_TrROS_Hall]” are 2.43 ± 0.078 kcal/mol, 2.35 ± 0.061 kcal/mol and 2.39 ± 0.083 kcal/mol.
As to “SAGGSAGGSMELVIKTVTVNSPSKSPEELAKEIEEKYGVKILKVEVTEDPEGGVTVTATIINKSAGGSAGGS [r12_359_JUSTAS]”, the results for the “folding stability dG unfold” value in series [1], in series [2] and in series [3] were 1.49 ± 0.041 kcal/mol, 1.72 ± 0.065 kcal/mol and 1.34 ± 0.015 kcal/mol, respectively.
Taken in the same sequence, the figures for “SAGGSAGGSMELVIPKEEVEKMSEEVVKKIKELAKKANISISETEDSLVIPIKKVSEKVIKELSAGGSAGGS [r12_945_JUSTAS]” were 0.232 ± 0.1 kcal/mol, -0.325 ± 0.075 kcal/mol and 0.497 ± 0.045 kcal/mol.
The corresponding values for “SAGGSAGGSMEPRPVVITFRDPEGNFIGTVELPAEFESEEEALAAAEAVRAANPGYTVEIEGLSAGGSAGGS [r20_201_JUSTAS]” are 1.87 ± 0.07 kcal/mol, 1.67 ± 0.084 kcal/mol and 1.98 ± 0.033 kcal/mol.
Regarding “SAGGSAGGSMETITLPEDVKVEVVEVEPGSVIEVEFEDGLVARVRIDPENLEKVEIEVFPKEESAGGSAGGS [r12_648_TrROS_Hall]”, the results for the “folding stability dG unfold” value in series [1], in series [2] and in series [3] were 0.694 ± 0.17 kcal/mol, -0.0965 ± 0.16 kcal/mol and 0.826 ± 0.16 kcal/mol, respectively.
As for “SAGGSAGGSMETRTFDSEEELRASVSVPSSLSVTFERRPGRWEVRIEPPLSPEEIAAQRARLLSAGGSAGGS [r12_274_JUSTAS]”, the “folding stability dG unfold” value is -0.553 ± 0.11 kcal/mol in series [1], -0.346 ± 0.17 kcal/mol in series [2] and -1.07 ± 0.6 kcal/mol in series [3].
The corresponding values for “SAGGSAGGSMETTREELPPELTVERVTEREPGEGRITVRVKVYRPDGTLLSEEVVERDPEDLESAGGSAGGS [r12_240_JUSTAS]” are 0.295 ± 0.097 kcal/mol, 0.319 ± 0.053 kcal/mol and 0.166 ± 0.14 kcal/mol.
